This note sets out measurements from publication PMC6054930 (Frontiers in Immunology, 2018).

This assay deals with T1, hPD-L1-Fc (human, UniProt Q9NZQ7 19-238).
T1 construct: human programmed death-ligand 1 (PD-L1, CD274, B7-H1); also called programmed death-ligand 1; CD274; source: bought: tebu-bio/BPS Bioscience, #71104
As to the kind of experiment: ELISA; competitive: hPD-L1-Fc coated on the plate; test antibodies in presence of 1 µg/ml PD-1-Biotin or 0.5 µg/ml CD80-Biotin; detected with streptavidin-POD. As to conditions: both partners purified. In general terms: An ELISA detects its analyte on a solid surface through an enzyme-linked reagent.

T1 sequence (Q9NZQ7 19-238): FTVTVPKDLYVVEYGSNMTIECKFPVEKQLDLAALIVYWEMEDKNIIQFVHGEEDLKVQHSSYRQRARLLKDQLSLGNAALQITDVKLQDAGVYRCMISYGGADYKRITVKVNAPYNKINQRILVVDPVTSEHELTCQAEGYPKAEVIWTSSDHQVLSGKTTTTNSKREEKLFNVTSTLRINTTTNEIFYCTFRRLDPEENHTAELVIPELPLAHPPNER

B1: CD80-Biotin (ligand, human, UniProt P33681 35-242, looked up)
chain: VIHVTKEVKEVATLSCGHNVSVEELAQTRIYWQKEKKMVLTMMSGDMNIWPEYKNRTIFDITNNLSIVILALRPSDEGTYECVVLKYEKDAFKREHLAEVTLSVKADFPTPSISDFEIPTSNIRRIICSTSGGFPEPHLSWLENGEELNAINTTVSQDPETELYAVSSKLDFNMTTNHSFMCLIKYGHLRVNQTFNWNTTKQEHFPDN
modifications: biotin
notes: The vendor's product may carry an Fc part; also called B7-1; soluble CD80; source: bought: tebu-bio/BPS Bioscience, #71114
Consider B1, for which the binding result is “binds”.
